In paper PMC7417313 (2020):

Biological target: C3b C3b (Homo sapiens, UniProt P01024)
Test: SPR

Chain of C3b C3b (P01024 566-670): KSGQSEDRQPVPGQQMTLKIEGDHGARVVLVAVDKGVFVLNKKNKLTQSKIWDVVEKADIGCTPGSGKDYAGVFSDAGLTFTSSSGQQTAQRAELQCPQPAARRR

B1: Factor H (protein)
chain: EDCNELPPRRNTEILTGSWSDQTYPEGTQAIYKCRPGYRSLGNVIMVCRKGEWVALNPLRKCQKRPCGHPGDTPFGTFTLTGGNVFEYGVKAVYTCNEGYQLLGEINYRECDTDGWTNDIPICEVVKCLPVTAPENGKIVSSAMEPDREYHFGQAVRFVCNSGYKIEGDEEMHCSDDGFWSKEKPKCVEISCKSPDVINGSPISQKIIYKENERFQYKCNMGYEYSERGDAVCTESGWRPLPSCEEKSCDNPYIPNGDYSPLRIKHRTGDEITYQCRNGFYPATRGNTAKCTSTGWIPAPRCTLKPCDYPDIKHGGLYHENMRRPYFPVAVGKYYSYYCDEHFETPSGSYWDHIHCTQDGWSPAVPCLRKCYFPYLENGYNQNYGRKFVQGKSIDVACHPGYALPKAQTTVTCMENGWSPTPRCIRVKTCSKSSIDIENGFISESQYTYALKEKAKYQCKLGYVTADGETSGSITCGKDGWSAQPTCIKSCDIPVFMNARTKNDFTWFKLNDTLDYECHDGYESNTGSTTGSIVCGYNGWSDLPICYERECELPKIDVHLVPDRKKDQYKVGEVLKFSCKPGFTIVGPNSVQCYHFGLSPDLPICKEQVQSCGPPPELLNGNVKEKTKEEYGHSEVVEYYCNPRFLMKGPNKIQCVDGEWTTLPVCIVEESTCGDIPELEHGWAQLSSPPYYYGDSVEFNCSESFTMIGHRSITCIHGVWTQLPQCVAIDKLKKCKSSNLIILEEHLKNKKEFDHNSNIRYRCRGKEGWIHTVCINGRWDPEVNCSMAQIQLCPPPPQIPNSHNMTTTLNYRDGEKVSVLCQENYLIQEGEEITCKDGRWQSIPLCVEKIPCSQPPQIEHGTINSSRSSQESYAHGTKLSYTCEGGFRISEENETTCYMGKWSSPPQCEGLPCKSPPEISHGVVAHMSDSYQYGEEVTYKCFEGFGIDGPAIAKCLGEKWSHPPSCIKTDCLSLPSFENAIPMGEKKDVYKAGEQVTYTCATYYKMDGASNVTCINSRWTGRPTCRDTSCVNPPTVQNAYIVSRQMSKYPSGERVRYQCRSPYEMFGDEEVMCLNGNWTEPPQCKDSTGKCGPPPPIDNGDITSFPLSVYAPASSVEYQCQNLYQLEGNKRITCRNGQWSEPPKCLHPCVISREIMENYNIALRWTAKQKLYSRTGESVEFVCKRGYRLSSRSHTLRTTCWDGKLEYPTCAKR
Kd: 0.1 µM
